Source: IntAct's records for PubMed 23972470

B1: Serine/threonine-protein kinase 3 (Homo sapiens), Q13188 (parent)
chain: MEQPPAPKSKLKKLSEDSLTKQPEEVFDVLEKLGEGSYGSVFKAIHKESGQVVAIKQVPVESDLQEIIKEISIMQQCDSPYVVKYYGSYFKNTDLWIVMEYCGAGSVSDIIRLRNKTLIEDEIATILKSTLKGLEYLHFMRKIHRDIKAGNILLNTEGHAKLADFGVAGQLTDTMAKRNTVIGTPFWMAPEVIQEIGYNCVADIWSLGITSIEMAEGKPPYADIHPMRAIFMIPTNPPPTFRKPELWSDDFTDFVKKCLVKNPEQRATATQLLQHPFIKNAKPVSILRDLITEAMEIKAKRHEEQQRELEEEEENSDEDELDSHTMVKTSVESVGTMRATSTMSEGAQTMIEHNSTMLESDLGTMVINSEDEEEEDGTMKRNATSPQVQRPSFMDYFDKQDFKNKSHENCNQNMHEPFPMSKNVFPDNWKVPQDGDFDFLKNLSLEELQMRLKALDPMMEREIEELRQRYTAKRQPILDAMDAKKRRQQNF
partner: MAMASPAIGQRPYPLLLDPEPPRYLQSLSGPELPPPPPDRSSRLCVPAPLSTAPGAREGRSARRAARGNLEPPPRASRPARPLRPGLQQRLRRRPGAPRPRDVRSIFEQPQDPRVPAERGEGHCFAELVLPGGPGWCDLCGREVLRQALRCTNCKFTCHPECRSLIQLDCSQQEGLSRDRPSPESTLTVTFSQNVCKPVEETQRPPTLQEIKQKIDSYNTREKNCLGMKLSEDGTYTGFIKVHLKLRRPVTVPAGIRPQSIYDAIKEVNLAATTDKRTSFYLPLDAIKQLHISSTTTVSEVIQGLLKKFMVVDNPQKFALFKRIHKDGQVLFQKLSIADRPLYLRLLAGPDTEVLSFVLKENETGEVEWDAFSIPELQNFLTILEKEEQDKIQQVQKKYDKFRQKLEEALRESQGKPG

Variants of: B1
Conditions: with RASSF5, Q8WWW0-1

| Variant | effect of a mutation on the interaction |
| --- | --- |
| K473A | decreasing interaction strength |
